In the nanobody polyreactivity screen of Harvey et al. (2022):

Assay: yeast display, Sf9 membrane polyspecificity reagent, FACS + sequencing; frameworks hold sequencing errors
Summary of the method: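 Galactose induction of a Saccharomyces cerevisiae BJ5465 synthetic nanobody display library ran 36–48 hours. The cells were then stained for 1 hour at 4 °C with 10% biotinylated, detergent-solubilized Sf9 membrane reagent, pulled down on streptavidin microbeads and FACS-sorted into low and high (top ~1%) gates on expression and reagent-binding fluorescence. Labels for polyreactivity follow the gate of origin.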

With “QVQHVESGGGLVQAGGSLRLSCAASGIIFIGNAMGWYRQAPGKEGALVAANTDSGGRTYYADSVKGRFTISRDNAKNSVYLQMNCLKPEDTAVYYCARDRGKNTPYDYWGQGTLVTVSS” the “polyreactivity (PSR sort gate)” value was “low polyreactivity”.

For “QVQLVESGGGLVQAGGSLRLSCAASGRTFYRYAMGWYRQAPGKERELVAVITSGSRTKYADSVKGRFTISRDNAKNTVYLQMNSLKPEDTAVYYCNAYGVRYRQAFVRYNYWGQGTQVTVSS”, the “polyreactivity (PSR sort gate)” value was “high polyreactivity”.

In the case of “QVQLVESGGGLVQAGGSLRLSCAASGRIFRYYMGWYRQAPGKERELVAVISSGGRTKYADSVKGRFTISRDNAKNTVYLQMNSLKPEDTAVYYCAARYPREAAYGFDYWGQGTQVTVSS”, the “polyreactivity (PSR sort gate)” value is reported as “high polyreactivity”.

With “QVQLLESGGGLVQAGGSLRLSCAASGSIFATYAMGWYRQAPGKERELVAAISSSGARTYYADSVKGRFTISRDNAKNTVYLQMNSLKPEDTAVYYCNADLYSYFWRVRYGLDYWGQGTQVTVSS” the “polyreactivity (PSR sort gate)” value was “high polyreactivity”.

In the case of “QVQLVESGGGLVQAGGSLRLSSAASGSIFYYNAMGWYRQAPGKEREFVAAISARGGSTYYADSVKGRFTISRDNAKNTVYLQMNSLKPEDTAVYYCAASWGLDTYSDSTYWGGYYYSGQGTQVTVSS”, the “polyreactivity (PSR sort gate)” value is reported as “low polyreactivity”.

With “QVQLVESGGGLVQAGGSLRLSCAASGFTFSYYAMGWYRKAPGKEMELVAAINWNGGSTYYADSVKGRFTISRDNAKNTVYLQMNSLKPEDTAVYYCNARQSYRYTQHGYWGQGTQVTVSS” the “polyreactivity (PSR sort gate)” value was “high polyreactivity”.

In the case of “QVQLVESGGGLVQAGGSLRLSCAASGHNFFYYTMVWYRPAPGKERELVAGITIGGSTNYADSVKGRFTISRDNAKNNVYLVMNSLKPEDTAVYYCNVDKYVYIYSYWEYYYWGQGTQVTVSS”, the “polyreactivity (PSR sort gate)” value is reported as “low polyreactivity”.

With “QVQLVESGGGLVQAGGSLRLSCAASGRIFKPYVMGWYRQAPGKERELVASITWNGGRTYYADSVKGRFTISRDNAKNTVYLQMNSLKPEDTAVYYCAADYWTTADPRNIIKYDYWGQGTQVTVSS” the “polyreactivity (PSR sort gate)” value was “high polyreactivity”.

With “QVQLVESGGGLVQAGGSLRLSCAASGSTFAQNVMGWYRQAPGKERELVAAITSSGSTNYADSVKGRFTISRDNAKNTVYLQMNILKPEDTAVFYCAKDVLAPYSRHDYWGQGTQVTVSS” the “polyreactivity (PSR sort gate)” value was “low polyreactivity”.

In the case of “QVQLVESGGGLVQAGGSLRLSCAASGRIFTGYAMGWYRQAPGKERELVAAITASGGNTYYADSVKGRFTISRDNAKNTVYLQMNSLKPEDTAVYYCAAGWYDQPDDYTSAYGVTKYGYWGQGTQVTVSS”, the “polyreactivity (PSR sort gate)” value is reported as “low polyreactivity”.

In the case of “QVQLVESGGGLVQAGGSLRLSCAASGSIFPVYAMGWYRQAPGKERELVAAISSRGGRTYYADSVKGRFTISRDNAKNTVYLQMNSLKPEDTAVYYCAAVPYPSYYDTGYDYWGQGTQVTVSS”, the “polyreactivity (PSR sort gate)” value is reported as “low polyreactivity”.

With “QVQLVESGGGLVQAGGSLRLSCAASGSTFFFNAMGWYRQAPGKERELVAAITGRSGSTYYADSVKGRFTISRDNAKNTVYLQMNSLKPEDTAVYYCAADFSPWRSDFDYWGQGTQVTVTS” the “polyreactivity (PSR sort gate)” value was “low polyreactivity”.

For “QVQLVESGGGLVQAGGSLRLSCAASGFTIVPYAMGWYRQAPGKERELVAAISRRGSRTYYADSVKGRFTISRDNAKNTVYLQMNSLKPEDTAVYYCAAKLSAVKAAYDYWGQGTQVTVSS”, the “polyreactivity (PSR sort gate)” value was “high polyreactivity”.

With “QVQLVESGGGLVQAGGSLRLSCAASGSTIRVYGMGWYRQAPGKERELVAAIRWIGGRTYYADSVKARFTISRDNAKNTVYLQMNSLKPEDTAVYYCNARAGPVRFDYWGQGTQVTVAS” the “polyreactivity (PSR sort gate)” value was “low polyreactivity”.

With “QVQLVESGGGLVQAGGSLRLSCAASGRIFYRNAKGWYRQATGKERALVASITSGGRTNYADSVKGRFTISRDNAKNTVYLQMNSLKPEDTAVYYCAAPPPYSVRTFRFYYWGQGTQVTVSS” the “polyreactivity (PSR sort gate)” value was “high polyreactivity”.

For “QVQLVESGGGLVQAGGSLRLICAASGRIFHGNAMGWYRQAPGKERELVAAISRRGGSTYYADSVKGRFTISRDNAKNTVYLQMNSLKPEDTAVYYCASVYYNGIRYGYWGQGTQVTVSS”, the “polyreactivity (PSR sort gate)” value was “high polyreactivity”.

In the case of “QVQLVESGGGLVQARGSLRLSSAASGIIFCHYVMGWYRQAPGKERELVAAISSRGGNTYYADSVKWRFTISRDNAKNTVYFQMNSLKPEDTAVYYCNARGGARAWYFAYNYWGHGTQVTVSS”, the “polyreactivity (PSR sort gate)” value is reported as “high polyreactivity”.

For “QVQLVESGGGLVQAGGSLRLSCAASGFIFSYYAMGWYRQAPGKERELVATITSGGSTNYADSVKGRFTISRDNAKNTVYLQMNSLKPEDTAVYYCNALPGVSHTQYDRVGYWGQGTQVTLSS”, the “polyreactivity (PSR sort gate)” value was “high polyreactivity”.

With “QVQLVESGGGLVQAGGSLRLSCAASGFIFYYNAMGRYRQAPGKERELVATIRGSGGSTYYADSVKGRFTISRDNAKNTVYLQMNSLKPEDTAVYYCATTIYGLTSRLYYWGQGTQVTVSS” the “polyreactivity (PSR sort gate)” value was “high polyreactivity”.

With “QVQLLESGGGLVKAGGSLRVSCAASGLTFNYYAMGWYRHAPGKDRELCAAISRRGGYTYYADSVKGRFTISRDNAKNTVYVQKNSQKPEDTAVYDCAADNYEHNYYGYYYWGQGNQVTVSS” the “polyreactivity (PSR sort gate)” value was “high polyreactivity”.

With “QVQLVESGGGLVQAGGILRLSCAASGSTFGRYAIGWYRPAPGTERELVAAISRRGGSTYYADSVKWRFTISRDNAKNNVYLQMYSLKPVDTAVYYCAADDVRTSGCHFDYWGDGTQVTVSS” the “polyreactivity (PSR sort gate)” value was “high polyreactivity”.

With “QVQLVESGGGLVQAGGSLRLSCAASGNIFSVYAMGWYRQAPGKERELVAAISSSGGRTYYADSVKGRFTISRENSKNTVYLQMNSLKPEDTAVYYCAARSYTGQFGYWGQGTQVTVSS” the “polyreactivity (PSR sort gate)” value was “high polyreactivity”.

In the case of “QVQLVESGGGLVHAGGSLRLSCAASVSIFASNAMGWYRQAPGKERELVAAITSSGRTKYADSVKGRFTISRDNAKNTVYLQMNSLNPEDTAVYYCAAVYYTYFGRYDYWGQGTQVTVSS”, the “polyreactivity (PSR sort gate)” value is reported as “high polyreactivity”.

With “QVHLVESGGGIVQAGGSLPLTCAAYGSIFNRYAMGWYRPAPGKERQLVAAISLTSGSTYYADYVKGRFTISRDNEKITVYLQMNSLKPEDTAVYYCATRRKVGPTQVGFYYRGGVDYWGQGTQVTVSS” the “polyreactivity (PSR sort gate)” value was “high polyreactivity”.

For “QVQLVEAGGGLVQAGGSLRLSCAASGRIFVPYAMGWYRQAPGKEWELVAGISWSGGSTYYADSVKGRFTISRDNAKNTVYLQMNNLKPEDTPVYYCAAAKRRRPFDYWGQGTQVTVSS”, the “polyreactivity (PSR sort gate)” value was “high polyreactivity”.

For “QVQLVDSGGGLVQAGGSLRLSCASTGSIYRYAIGWNRQSPGKERELVAAINFNGGRTYYADSVKGRFTISSDNAKNTVYLQMNSLKPEDTAVYYCAAVRSSNQGGFDYWGQGTLVTVSS”, the “polyreactivity (PSR sort gate)” value was “high polyreactivity”.

With “QVQLEESGGGLVQAGGSLRLSCAASGFIFSWYVMGWYRQAPGKERELVAAISQSGGDTYYADSVKGRFTISRDNAKNTVYLQMNSLKPEDTAVYYCAVGRVGRFYYWGQGTQVTVSS” the “polyreactivity (PSR sort gate)” value was “high polyreactivity”.

For “QVQLVESGGGLVQAGGSLRLSCAASGRTFAAYAMGWYRQAPGKERELVAAIRRGGTTNYADSVKGRFTISRDNAKNTVYLQMNSLKPEDTAVYYCAALAPYSRSWVTYDYWGQGSQVTVSS”, the “polyreactivity (PSR sort gate)” value was “low polyreactivity”.

In the case of “QVQLVESGGGLDQAGGSLRLSCAASGFIFYYYAMGWYRQAPGKEREFVAGISRRGGSSYYADSVKGRFTISRDNAKNTVYLQMNSLKPEDTAVYYCIVDFHWQRFHHKSAAYDYWGQGTQVTVSS”, the “polyreactivity (PSR sort gate)” value is reported as “high polyreactivity”.

In the case of “QFQLVESGGGLVQAGGSLRLSCAAYGSTLYPYEMGWYRQAPGKERELVAAIDSGGSKNYADSVKGRFTISRDNAKNTVYLQMNSLKPEDTAVYYCAADGGVAWGYGYWGQGTQVTVSS”, the “polyreactivity (PSR sort gate)” value is reported as “low polyreactivity”.

With “QVQLVESGGGLVQAGGSLRLSCAASGSIFGYNAMGWYRQAPATERELVATIRNGGITNYADSVKGRFTISRDNAKNTVYLQMNSLKPEDTAVYYCAADVVQYLYYFRLDYWGQGTQVTVSS” the “polyreactivity (PSR sort gate)” value was “low polyreactivity”.

With “QVQLVESGGGLVQAGGSLRLICAASGRTCWKYVMGWYRQAPGKERDLVAVISSDGITNYADSVKGRFTISRDNAKNTVYLQMNSLKPEDTAVYYCNAGPDDYVGYWGKYDYWGQGTQVTVSS” the “polyreactivity (PSR sort gate)” value was “low polyreactivity”.

With “QVQLVESRGGLVQAGGSLRLSCAASGFTFFVYPMGWYRQAAGKERELVAVITSGGTTNYADSVKGRFTISRDNAKNTVYLQMNSLIPEDTAVYYCATDNGGIPKYVPYDYWGQGTQGTVSS” the “polyreactivity (PSR sort gate)” value was “high polyreactivity”.

With “QVQLVESGGGLVQAGGSLRLSCAASGRIFNRYGMGWYRQAPGKERELVAAITWRGGNTYYADSVKGRFTISRDNAKNTVYLQMNSLKPEDTAVYYCAADGGYSAYFGAYDYWGQGTQVTVSS” the “polyreactivity (PSR sort gate)” value was “high polyreactivity”.

In the case of “QVQLVESGGGLVQAGGSLRLSCAASGSIFGTYAIGWDRQAPGKERELVAAISRGGRTYYADSVKGRFTISRDNAKNTVYLQMNSLKPEDTAVYYCAARTVGLRGYYYWGQGTQVTVSS”, the “polyreactivity (PSR sort gate)” value is reported as “high polyreactivity”.

In the case of “QGQLVESGGGLVQAGGSLRLSCAASGSTFTIYVMGWYRQAPGKERELVAGISWSGGSTYYTDSVKGRFTISRDNAKNTVYLQMNSLKPEDTAVYYCNADAQWSVWSYIIDYDYWGQGTQVTVPS”, the “polyreactivity (PSR sort gate)” value is reported as “low polyreactivity”.

With “QVQLQESGGGLVQAGGSLRLSCAASGTIFRISDMGSYRQAPGKEREFVAAITYGANTYYADSGKGRFTISRDNAKNTVSLQMNSLKPEDTAVYYCAVPPVKETILDYWGQGTQVTVSS” the “polyreactivity (PSR sort gate)” value was “low polyreactivity”.

In the case of “QVQLVESGGGLVQEGGSLRLSCAASRRTFRLYVMGWYSQAPGKERELVAAITWRGRTTYYAHSVKGRFTISRDNAKNTVYLQMNSLKPEDTAVYYCATTRYPRSYQEFGYWGQGTQGTVSS”, the “polyreactivity (PSR sort gate)” value is reported as “high polyreactivity”.

With “QVQLVESGGGLVQAGCSLRLSCAASGSNFYRNSMRWYRQAPGKERELVAGITTRGGSTYYADSVKGRFTISRDNAKNTVYLQMNSLKPEDTEVYYCNARSYTGSYFKYYYWGQGTQVTVSS” the “polyreactivity (PSR sort gate)” value was “high polyreactivity”.

In the case of “QVKLVESGGGLVQAGGSLRLSCAASGRIFWSNAMVWYRQAPGKERELVAAISRRGGRTYYADSVKGRFTISRDNAKNTVYLQMNSLKPEDTAVYYCAADGTADYDYWGQGTQVTVSS”, the “polyreactivity (PSR sort gate)” value is reported as “high polyreactivity”.

With “QVQLVESGGGLVQAGGSLRLSCAASGFTFYTYAMGWYRQAPGKERELVADISSGGSTNYADSVKGRFTISRDNAKNTVYLQMNSLKPEDTAVYYCSADYYFLDWYDYWGQGTQVTVSS” the “polyreactivity (PSR sort gate)” value was “low polyreactivity”.

With “QVQLVESGGGLVQAGGSLRLSCAASGYTFGRYAMGWYSQAPGKERELVAAITKSGGRTSYADSVKGRFTISRDNEKNTVYLQMTSLKPEDTAVYYCNKVRFQPYWVVYATGDYWGQGTQVTVSS” the “polyreactivity (PSR sort gate)” value was “high polyreactivity”.

In the case of “QVQLVESGGGLVQAGGSLRLSCAASGSTFIPYAMGWYRQAPGKERELVARITWSDTSTYYADSVKGRFTISRDNAKNTVYLHMNSVKPEDTAVYYCAAKEFSLARGARPRYYYWGQGTQVTVSS”, the “polyreactivity (PSR sort gate)” value is reported as “high polyreactivity”.
